Measured values reported in publication PMC3322178 (Biochemistry, 2009).
Changes are numbered by the printed parent chain. In names and notes the source's numbering stands. Read-outs that look alike come from different tables or passages of the source. Each block holds one molecule with its values, some of them ahead of it.

Assays:
ASF/SF2 (Homo sapiens) = ASF/SF2 (Homo sapiens) (UniProt Q07955); settings: cited from earlier work
[1] = target: T1, His-SRPK1(FL), full length SR protein kinase 1 (UniProt Q96SB4 1-655); test: pull-down
[2] = target: T1, His-SRPK1(FL), full length SR protein …; test: pull-down; remark: listed apart in the source

Molecule: SRPK1 (from UniProt Q96SB4)
Kd (ASF/SF2 (Homo sapiens)): 50 nM

binding result [1]: binds
B1: GST-ASF(RRM2)-Q135A (domain or fragment, human, UniProt Q07955 105-196, looked up)
chain: GGAPRGRYGPPSRRSENRVVVSGLPPSGSWADLKDHMREAGDVCYADVYRDGTGVVEFVRKEDMTYAVRKLDNTKFRSHEGETAYIRVKVDG

binding result [1]: binds
B2: GST-ASF(RRM2)-W134A (domain or fragment, human, UniProt Q07955 105-196, looked up)
chain: B1 chain with W30A, A31Q

binding result [2]: binds
B3: GST-ASF(RRM2)-R154A (domain or fragment, human, UniProt Q07955 105-196, looked up)
chain: B1 chain with A31Q, R50A

binding result [1]: binds
B4: GST-ASFΔβ4ΔRS (residues 1-179) (domain or fragment, human, UniProt Q07955 1-179, looked up)
chain: MSGGGVIRGPAGNNDCRIYVGNLPPDIRTKDIEDVFYKYGAIRDIDLKNRRGGPPFAFVEFEDPRDAEDAVYGRDGYDYDGYRLRVEFPRSGRGTGRGGGGGGGGGAPRGRYGPPSRRSENRVVVSGLPPSGSWQDLKDHMREAGDVCYADVYRDGTGVVEFVRKEDMTYAVRKLDNTK

binding result [2]: binds
B5: GST-ASF(RS), ASF/SF2 RS domain residues 183-248 (domain or fragment, human, UniProt Q07955 183-248, looked up)
chain: HEGETAYIRVKVDGPRSPSYGRSRSRSRSRSRSRSRSNSRSRSYSPRRSRGSPRYSPRHSRSRSRT
